The values that follow come from patent publication US20260209387A1, “SINGLE-DOMAIN ANTIBODY FOR INHIBITION OF NEUTROPHIL ELASTASE ACTIVITY” (UNIVERSITE DE LIEGE, priority 2023, published 2026).

In one data set the target is T1, human cathepsin G (hCG) (Homo sapiens, UniProt P08311).
T1 construct: purchased Calbiochem
T1 sequence (P08311 21-244): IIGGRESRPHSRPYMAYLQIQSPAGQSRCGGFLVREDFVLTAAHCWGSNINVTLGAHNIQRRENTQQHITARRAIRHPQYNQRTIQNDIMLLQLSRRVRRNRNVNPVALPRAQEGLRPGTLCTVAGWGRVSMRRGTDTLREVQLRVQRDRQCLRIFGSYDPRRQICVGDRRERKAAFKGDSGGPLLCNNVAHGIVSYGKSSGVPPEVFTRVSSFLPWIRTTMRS
The data set can be described thus: hCG inhibition, substrate N-Succinyl-Ala-Ala-Pro-Phe p-nitroanilide. It counts as biochemical. As to conditions: chromogenic substrate. The source says:
(§1) To determine whether NbE201 was specific for hNE, we first investigated its ability to inhibit several serine proteases: pancreatic elastase from pork (pPE, 39.2% sequence identity, from Sigma), mice neutrophil elastase (mNE, 74.9% sequence identity, from EPC) and with two other human serine proteases present in the lung: proteinase 3 (hPR3 from EPC, 54.7% sequence identity) and cathepsin G (hCG from Calbiochem, 36.7% sequence identity). The substrate used were Succinyl-Ala-Ala-Ala-paraNitroAnilide (1 mM in 0.1 M Tris pH 7.5 with NaCl 0.5 M and NaN3 0.01%, % w/v from Sigma-Aldrich) for pPE, MeOSuc-Ala-Ala-Pro-Val-AMC (100 μM in Tris 50 mM, NaCl 1 M, 0.05% (% w/v) Brij-35, pH 7.5) for mNE, N-Succinyl-Ala-Ala-Pro-Phe p-nitroanilide (0.45 mM in 100 mM HEPES pH 7.5, from Sigma Aldrich) for hCG and Boc-Ala-Ala-Nva-SBzl (0.22 mM in 100 mM MOPS pH 5.0 0.5 M NaCl, 100 μM DTNB, DMSO 10%, from EPC) for PR3. mNE (rmELA2 from R&D systems, United Kingdom) was first activated according to the supplier information. In brief, mNE was incubated with recombinant mouse active cathepsin C/DPPIy (rmCathepsin C from R&D systems) in MES 50 mM, NaCl 50 mM, pH 5.5 for 2 h at 37° C. The enzyme concentration in the assay was 6 nM, 14.7 nM, 25 nM, 5 nM for PPE, mNE, hCG and hPR3, respectively. Different molar ratios of NbE201: Enzyme were tested. […]

Data set [1] has as its target T2, hNE (Homo sapiens, UniProt P08246).
T2 construct: purchased Elastin Products Company (EPC)
T2 sequence (P08246 30-247): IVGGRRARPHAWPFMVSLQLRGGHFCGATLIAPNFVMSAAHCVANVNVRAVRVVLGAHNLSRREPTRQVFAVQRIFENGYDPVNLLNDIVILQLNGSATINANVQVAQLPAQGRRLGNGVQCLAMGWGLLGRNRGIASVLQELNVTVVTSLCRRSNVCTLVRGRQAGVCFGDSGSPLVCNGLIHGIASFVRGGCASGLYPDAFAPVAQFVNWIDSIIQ
The data set can be described thus: Affinity of NbE201 for hNE by BLI. It counts as binding. As for the experimental part: The affinity of NbE201 for hNE and mNE was measured by BLI with the Octet HTX machine using various settings. […] For hNE, the biotinylated NbE201 (0.5 μg·mL^−1) was immobilized on streptavidin biosensors (SA, Sartorius) following the provider's indications. Then, the biosensors were immersed in a solution of hNE at different concentrations (25-6.25-3.125-1.5163-0.753 nM). Association and dissociation kinetics were measured for 180 s and 300 s respectively, in 10×KB buffer. All the experiments were carried out at 30° C. in 96-wells or 384-wells black-bottom microplates in polypropylene (Greiner Bio-One, Belgium) and with orbital agitation (1500 rpm). The sensorgrams obtained were fitted globally to a 1:1 model to derive the rate constants for association (kon) and dissociation (koff) and the equilibrium dissociation constant (KD=koff/kon). […] were carried out. The error on KD was calculated using the following equation: […]

In data set [2] the target is T3, porcine pancreatic elastase (pPE) (Sus scrofa, UniProt P00772).
T3 construct: purchased Sigma
T3 sequence (P00772 27-266): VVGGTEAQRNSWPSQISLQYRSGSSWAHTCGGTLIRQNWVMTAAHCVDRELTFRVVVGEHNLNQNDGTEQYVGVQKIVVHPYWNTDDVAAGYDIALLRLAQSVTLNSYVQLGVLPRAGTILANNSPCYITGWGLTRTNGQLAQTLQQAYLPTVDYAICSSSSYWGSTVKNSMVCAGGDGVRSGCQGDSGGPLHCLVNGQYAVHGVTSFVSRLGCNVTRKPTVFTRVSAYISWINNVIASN
Nature of the data set: BLI binding to other serine proteases: pPE. Conditions: 50 nM protease. As for the experimental part: (§2) The specificity of NbE201 for hNE was also investigated by BLI. Biotinylated NbE201 (10 μg/mL) was immobilized on streptavidin biosensors (SA, Sartorius) following provider's indications. The biosensors were then immersed in a 50 nM solution of a serine protease. The proteases tested were human cathepsin G (hCG), human proteinase 3 (hPR3), mouse pancreatic elastase (mPE), mouse neutrophil elastase (mNE) and porcine pancreatic elastase (pPE). hNE was used a positive control. The association and dissociation were measured for 70 s and 320 s respectively, in kinetic buffer (KB, Sartorius). The experiments were carried out at 30° C. in 384-wells black-bottom microplates in polypropylene (Greiner Bio-One, Belgium) and with orbital agitation (1000 rpm).
Background: BLI is a label-free optical method that tracks binding on a fibre tip over time.

Data set [3] deals with T2, hNE. Nature of the data set: BLI specificity assay, hNE positive control. As to conditions: 50 nM protease. The format is binding. As for the experimental part: as §2
For data set [4], the target named is T2, hNE. Nature of the data set: hNE inhibition, hydrolysis of elastin (Elastin-CongoRed). The format is biochemical. As to the method: 1.6.2. Inhibition of the hydrolysis of elastin, a natural substrate of hNE. […] The samples were incubated for 16 hours at 37° C. with orbital shaking (900 rpm). The samples were then centrifuged at 90′000 g for 30 minutes at 4° C. to separate the insoluble Elastin from the digested and soluble molecule fragments. The soluble fraction was transferred into a 384-wells clear plate and the absorbance of Congo-red was measured at 495 nm in a SpectraMax M2e Microplates Reader (Molecular Devices, California, USA). The absorbance of the samples at different inhibitor: hNE molar ratios was compared to that measured in the absence of inhibitor, to determine the residual hNE activity. A sample of Elastin-Congo red without elastase was used as blank.

In data set [5] the target is T3, porcine pancreatic elastase (pPE). The data set can be described thus: pPE inhibition, substrate Succinyl-Ala-Ala-Ala-paraNitroAnilide. The format is biochemical. As to conditions: chromogenic substrate.
Excerpt: as §1

B1: NbE201: anti-hNE ISVD (VHH/nanobody) from immunized lama, amino acid sequence SEQ ID NO: 4 (protein)
VHH: QVQLQESGGGLVQAGGSLRLSCVVPGRTISLYRMGWFRQAPGKEREFVAGINWSGDMTDYVDSVKGRFTISRDNAKNTVYLEMNSLKPEDTAIYYCTADPKLLPLADSSYGYWGQGTQVTVSS
In the case of B1, the “inhibition of human cathepsin G” value with human cathepsin G (hCG) was “does not inhibit”. In addition, the “affinity for hNE relative to mNE” value in the data set with hNE [1] (hNE vs mNE) is “about 10 times”. In the data set with hNE [1] (hNE, BLI), the koff is on record as 3.2 ± 0.2 · 10^−3 s^−1 and the kon was 2.6 ± 0.9 · 10^6 M^−1 s^−1. Besides, the “binding to pPE by BLI” value in data set [2] is recorded as “does not bind to the other proteases”. Moreover, in the data set with hNE [3], the “binding to hNE by BLI (positive control)” value was “association signal”. The “hNE residual activity, elastin hydrolysis” value with hNE [4] ([inhibitor]:[hNE] = 50) was “almost zero”. Also, the “inhibition of hNE activity, elastin hydrolysis” value with hNE [4] ([inhibitor]:[hNE] ratio 15) is reported as 80%. Moreover, in data set [5], the “inhibition of porcine pancreatic elastase” value was “does not inhibit”.
